In patent US20250296996A1 (BROADWING BIO, published 2025) one finds binding result, Response and Kd data, which are given here for three molecules.

For assay [1], the target named is T1, P62 (huANGPTL7-his) (human, UniProt O43827 27-346).
T1 construct: not shown: C-terminal short linker and His tag
T1 chain: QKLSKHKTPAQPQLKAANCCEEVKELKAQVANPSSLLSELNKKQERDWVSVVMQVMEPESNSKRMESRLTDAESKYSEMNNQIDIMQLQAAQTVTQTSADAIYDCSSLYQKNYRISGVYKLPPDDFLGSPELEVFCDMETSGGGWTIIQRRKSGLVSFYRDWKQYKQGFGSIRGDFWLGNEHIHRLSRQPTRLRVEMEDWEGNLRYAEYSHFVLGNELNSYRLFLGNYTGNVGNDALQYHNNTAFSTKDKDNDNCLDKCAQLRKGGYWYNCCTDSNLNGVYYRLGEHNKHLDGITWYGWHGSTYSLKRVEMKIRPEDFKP
Nature of the assay: BLI Octet HTX; IgG on AHC sensor; P62 0.343-250 nM. The method, then: (§1) Experiments were also conducted to determine the reactivity and dissociation constants (KD) of anti-ANGPTL7 antibodies with the human ANGPTL7-his protein. Binding experiments were performed on Octet HTX (ForteBio) in 1×PBS, pH 7.4, 0.1 mg/mi BSA, 0.05% Sodium Azide, and 0.02% Tween 20. To measure monovalent binding kinetics, antibodies at a concentration of 50 nM were loaded on pre-hydrated AHC biosensors for 5 min. The loaded sensors were dipped into monovalent P62 (huANGPTL7-his) at a range of concentration from 0.343-250 nM (a serial 3-fold dilution) for 5 min association, followed by 10 min dissociation.

In assay [2] the target is T2, P66 (rabbit ANGPTL7-his) (rabbit, UniProt G1T4P1 27-344).
T2 construct: mature; also called rabbit ANGPTL7 protein
T2 sequence: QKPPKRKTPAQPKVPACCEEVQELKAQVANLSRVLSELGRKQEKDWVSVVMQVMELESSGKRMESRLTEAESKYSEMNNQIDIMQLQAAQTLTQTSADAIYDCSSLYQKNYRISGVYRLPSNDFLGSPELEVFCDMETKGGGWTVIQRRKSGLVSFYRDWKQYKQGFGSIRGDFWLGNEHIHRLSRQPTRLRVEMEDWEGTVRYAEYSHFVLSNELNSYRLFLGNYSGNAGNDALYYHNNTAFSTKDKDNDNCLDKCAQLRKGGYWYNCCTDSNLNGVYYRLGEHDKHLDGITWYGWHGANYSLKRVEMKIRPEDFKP
Nature of the assay: BLI Octet HTX; IgG on AHC sensor; P66 at 200 nM. The method, then: Experiments were also conducted to determine the reactivity and dissociation constants ([…]) of anti-ANGPTL7 antibodies with the rabbit ANGPTL7 protein. Binding experiments were performed on Octet HTX (ForteBio) in Rx PBS, pH 7.4, 0.1 mg/mi BSA, 0.05% Sodium Azide, and 0.02% Tween 20. Antibodies at a concentration of 50 nM were loaded on pre-hydrated AHC biosensors for 5 min. The loaded sensors were dipped into monovalent P66 (rabbit ANGPTL7-his) at a concentration of 200 nM for 5 min of association, followed by 10 min of dissociation. […] Responses (nm) at the end of association were also determined (Table 6).
(In general: Biolayer interferometry detects binding as a change in optical thickness at a sensor tip.)

In assay [3] the target is T3, muANGPTL7-his (R&D Systems) (mouse, UniProt Q8R1Q3 22-337, limits assumed).
T3 construct: Bought protein; also called mouse ANGPTL7 protein
T3 sequence (looked up): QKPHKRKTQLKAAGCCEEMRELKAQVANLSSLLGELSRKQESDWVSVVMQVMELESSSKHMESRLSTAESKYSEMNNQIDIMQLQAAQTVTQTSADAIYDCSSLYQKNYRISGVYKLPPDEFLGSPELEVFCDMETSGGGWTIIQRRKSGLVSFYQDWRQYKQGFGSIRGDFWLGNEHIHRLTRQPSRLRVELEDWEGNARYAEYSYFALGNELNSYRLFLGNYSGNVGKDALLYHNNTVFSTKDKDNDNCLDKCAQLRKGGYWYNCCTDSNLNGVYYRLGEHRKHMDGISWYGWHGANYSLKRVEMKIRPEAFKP
Nature of the assay: BLI Octet HTX; IgG on AHC sensor; muANGPTL7-his at 200 nM. The gist of the method:
(§2)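 Anti-ANGPTL7 antibodies (50 nM) were loaded on AHC biosensors in PBS pH 7.4 with BSA, azide and Tween 20. Sensors were dipped in monovalent mouse ANGPTL7-his (200 nM) for 5 min association and 10 min dissociation. KD came from a 1:1 fit, and responses were taken at the end of association.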

In assay [4] the target is T3, muANGPTL7-his (R&D Systems). Nature of the assay: BLI Octet HTX; IgG on AHC sensor; muANGPTL7-his at 200 nM; 1:1 fit. The gist of the method: as §2
Assay [5] addresses T1, P62 (huANGPTL7-his). Briefly: BLI Octet HTX; IgG on AHC sensor; P62 0.343-250 nM; global 1:1 fit. How it is done:
as §1

What is called Kd is the free concentration of one partner at which half of the binding sites on the other are occupied at equilibrium, for simple one-to-one binding. Read a low Kd as higher affinity.

B1: ATX-P-443 (antibody, human IgG1, kappa, N297A, V domains shown)
VH: QVQLVQSGAEVKKPGASVKVSCKASGYTFTSYGISWVRQAPGQGLEWMGWIIAYNGNTNYAQKLQGRITMTTNTSTNTAYMELRSLRSDDTAVYYCGRDTGFSFDYWGQGTLVTVSS
VL: not shown
notes: Full chains (VH + hIgG1-Agly-Fc)
B1: the binding result in assay [1] was “no binding (tested: 250 nM)”; in assay [2] it was “no binding (tested: 200 nM)”; in assay [3] it was “no binding (tested: 200 nM)”.

B2: ATX-P-428 (antibody, human IgG1, kappa, N297A, V domains shown)
VH: QVQLVQSGAEVKKPGASVKVSCKASGYTFSSYGISWVRQAPGQGLEWMGWISAYNGNTNYAQNLRGRVAMTTDTSTTTAYMELRSLRSDDTAVYYCARVSLVWFGELPRGFDYWGQGTLVTVSS
VL: not shown
notes: as for B1
With B2, the binding result in assay [1] was “no binding (tested: 250 nM)”; in assay [2] it was “no binding (tested: 200 nM)”; in assay [3], “no binding (tested: 200 nM)”. The molecule also came in with a Response in assay [4] of 0.04 nm.

B3: ATX-P-449 (antibody, human IgG1, kappa, N297A, V domains shown)
VH: QVQLVESGGGVVQPGRSLRLSCAASGFAFSSYGMHWVRQAPGKGLEWVAVISYYGSNKYYADSVKGRFTISRDNSKNTLYLQMNSLRAEDTAVYHCARGITMDVWGKGTTVTVSS
VL: EIVLTQSPATLSLSPGERATLSCRASQSVSSYLAWYQQKPGQAPRLLIYDASNRATGIPARFSGSGSGTDFTLTISSLEPEDFAVYYCQQRSNWPLTFGGGTKVEIKR
notes: as for B1
For B3, the binding result in assay [5] was “binds”. Moreover, in assay [4], the affinity, expressed as Kd, was 0.857 nM and the Response turned out to be 0.75 nm.
